Consider 18 molecules from patent US10206975 (dated 2019).

For test [1], the target named is human complement C5 (human). The experiment in a line: competition, ECL.
The target of test [2] is T1, human serum albumin (human, UniProt P02768). The experiment in a line: SPR. (In SPR one partner is held on a chip, and binding of the other changes the refractive index at the surface.)
For test [3], the target named is human complement C5 (human). The experiment in a line: SPR, without albumin.
For test [4], the target named is human complement C5 (human). The experiment in a line: SPR, with human albumin.
Another test concerns the target bovine serum albumin (bovine, UniProt P02769). The experiment in a line: SPR.
The target of another test is T2, rat serum albumin (rat, UniProt P02770).
T2 chain: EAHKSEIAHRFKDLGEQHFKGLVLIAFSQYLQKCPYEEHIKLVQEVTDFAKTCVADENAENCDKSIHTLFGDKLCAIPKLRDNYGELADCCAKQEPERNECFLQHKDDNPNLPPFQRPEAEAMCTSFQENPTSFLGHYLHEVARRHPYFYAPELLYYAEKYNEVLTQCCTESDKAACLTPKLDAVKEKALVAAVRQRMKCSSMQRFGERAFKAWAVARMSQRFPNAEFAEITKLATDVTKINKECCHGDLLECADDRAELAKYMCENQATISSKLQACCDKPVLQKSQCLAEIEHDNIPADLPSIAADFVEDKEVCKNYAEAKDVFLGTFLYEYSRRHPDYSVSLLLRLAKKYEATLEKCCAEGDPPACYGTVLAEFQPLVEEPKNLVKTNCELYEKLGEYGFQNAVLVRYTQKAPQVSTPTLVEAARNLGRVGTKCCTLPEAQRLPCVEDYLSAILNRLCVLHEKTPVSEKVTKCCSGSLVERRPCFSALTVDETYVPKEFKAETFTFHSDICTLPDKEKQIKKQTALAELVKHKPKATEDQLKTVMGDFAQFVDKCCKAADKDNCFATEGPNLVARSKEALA
The experiment in a line: SPR.

A further test addresses mouse serum albumin (mouse, UniProt P07724). The experiment in a line: SPR.
Test [5] has as its target human complement C5 (human). The experiment in a line: SPR.
Test [6] concerns the target T1, human serum albumin. The experiment in a line: SPR, 25C.
In another test the target is T3, human complement C4 (human).
T3 chain 1: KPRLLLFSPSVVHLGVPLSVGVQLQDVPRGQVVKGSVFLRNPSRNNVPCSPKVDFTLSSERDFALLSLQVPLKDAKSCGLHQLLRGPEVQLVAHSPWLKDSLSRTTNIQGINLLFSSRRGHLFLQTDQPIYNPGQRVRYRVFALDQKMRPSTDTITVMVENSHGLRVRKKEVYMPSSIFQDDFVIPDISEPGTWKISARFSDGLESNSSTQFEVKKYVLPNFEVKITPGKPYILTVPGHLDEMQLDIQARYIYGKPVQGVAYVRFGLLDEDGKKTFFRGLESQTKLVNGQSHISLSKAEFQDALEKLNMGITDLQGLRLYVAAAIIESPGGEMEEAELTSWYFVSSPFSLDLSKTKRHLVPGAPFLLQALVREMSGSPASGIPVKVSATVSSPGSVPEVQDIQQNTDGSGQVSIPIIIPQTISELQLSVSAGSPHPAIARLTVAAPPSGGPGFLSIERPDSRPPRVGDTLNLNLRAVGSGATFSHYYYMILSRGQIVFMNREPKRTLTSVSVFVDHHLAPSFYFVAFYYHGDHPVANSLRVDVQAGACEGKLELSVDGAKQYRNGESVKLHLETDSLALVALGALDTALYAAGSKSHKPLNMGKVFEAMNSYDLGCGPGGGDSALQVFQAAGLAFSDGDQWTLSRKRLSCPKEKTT
T3 chain 2: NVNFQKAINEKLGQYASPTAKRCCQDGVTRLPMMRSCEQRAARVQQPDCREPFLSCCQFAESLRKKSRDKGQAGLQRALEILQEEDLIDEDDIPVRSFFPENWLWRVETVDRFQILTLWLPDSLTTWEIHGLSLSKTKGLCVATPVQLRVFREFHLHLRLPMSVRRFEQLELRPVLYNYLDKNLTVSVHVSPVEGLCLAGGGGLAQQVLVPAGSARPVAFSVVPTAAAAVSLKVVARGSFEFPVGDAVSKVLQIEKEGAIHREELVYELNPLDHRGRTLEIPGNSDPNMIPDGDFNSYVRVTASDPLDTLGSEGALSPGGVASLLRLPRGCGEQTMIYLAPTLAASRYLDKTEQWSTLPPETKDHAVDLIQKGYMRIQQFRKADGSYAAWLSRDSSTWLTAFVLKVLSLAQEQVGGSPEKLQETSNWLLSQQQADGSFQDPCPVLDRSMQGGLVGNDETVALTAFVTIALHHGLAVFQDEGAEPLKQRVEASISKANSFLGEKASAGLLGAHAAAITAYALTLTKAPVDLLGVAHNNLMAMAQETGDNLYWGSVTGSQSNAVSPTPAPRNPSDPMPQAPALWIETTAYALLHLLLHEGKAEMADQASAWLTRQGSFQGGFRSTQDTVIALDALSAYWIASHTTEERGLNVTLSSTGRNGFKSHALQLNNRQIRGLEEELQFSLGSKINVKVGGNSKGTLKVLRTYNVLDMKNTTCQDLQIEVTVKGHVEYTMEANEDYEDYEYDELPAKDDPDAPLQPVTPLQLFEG
T3 chain 3: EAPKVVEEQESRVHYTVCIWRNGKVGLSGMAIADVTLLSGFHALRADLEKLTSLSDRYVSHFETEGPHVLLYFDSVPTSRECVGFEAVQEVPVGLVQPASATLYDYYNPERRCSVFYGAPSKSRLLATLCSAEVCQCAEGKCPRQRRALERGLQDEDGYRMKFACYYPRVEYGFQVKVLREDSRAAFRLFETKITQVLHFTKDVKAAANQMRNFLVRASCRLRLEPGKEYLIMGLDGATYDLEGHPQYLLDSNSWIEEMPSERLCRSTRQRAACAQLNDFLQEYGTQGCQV
The experiment in a line: SPR, 40 and 400 nM.

A further test concerns the target human complement C3 (human, UniProt P01024). The experiment in a line: SPR, 40 and 400 nM.
For test [7], the target named is human complement C5 (human). The experiment in a line: other, ECL saturation binding.

Chain of bovine serum albumin (P02769 25-607): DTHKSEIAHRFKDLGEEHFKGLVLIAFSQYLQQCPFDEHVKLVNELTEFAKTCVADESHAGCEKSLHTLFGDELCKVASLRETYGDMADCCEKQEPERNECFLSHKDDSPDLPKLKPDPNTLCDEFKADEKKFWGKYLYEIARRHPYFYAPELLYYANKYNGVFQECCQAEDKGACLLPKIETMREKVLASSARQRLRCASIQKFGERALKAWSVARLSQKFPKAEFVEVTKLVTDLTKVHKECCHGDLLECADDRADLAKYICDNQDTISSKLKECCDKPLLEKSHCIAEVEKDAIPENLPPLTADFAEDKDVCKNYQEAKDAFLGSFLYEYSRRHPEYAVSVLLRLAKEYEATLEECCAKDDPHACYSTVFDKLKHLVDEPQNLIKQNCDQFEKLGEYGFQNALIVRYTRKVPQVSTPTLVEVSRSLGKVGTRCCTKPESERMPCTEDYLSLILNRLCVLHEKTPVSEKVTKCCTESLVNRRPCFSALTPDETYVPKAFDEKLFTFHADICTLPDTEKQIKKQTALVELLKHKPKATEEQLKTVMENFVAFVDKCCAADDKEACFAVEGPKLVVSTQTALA
Chain of mouse serum albumin (P07724 25-608): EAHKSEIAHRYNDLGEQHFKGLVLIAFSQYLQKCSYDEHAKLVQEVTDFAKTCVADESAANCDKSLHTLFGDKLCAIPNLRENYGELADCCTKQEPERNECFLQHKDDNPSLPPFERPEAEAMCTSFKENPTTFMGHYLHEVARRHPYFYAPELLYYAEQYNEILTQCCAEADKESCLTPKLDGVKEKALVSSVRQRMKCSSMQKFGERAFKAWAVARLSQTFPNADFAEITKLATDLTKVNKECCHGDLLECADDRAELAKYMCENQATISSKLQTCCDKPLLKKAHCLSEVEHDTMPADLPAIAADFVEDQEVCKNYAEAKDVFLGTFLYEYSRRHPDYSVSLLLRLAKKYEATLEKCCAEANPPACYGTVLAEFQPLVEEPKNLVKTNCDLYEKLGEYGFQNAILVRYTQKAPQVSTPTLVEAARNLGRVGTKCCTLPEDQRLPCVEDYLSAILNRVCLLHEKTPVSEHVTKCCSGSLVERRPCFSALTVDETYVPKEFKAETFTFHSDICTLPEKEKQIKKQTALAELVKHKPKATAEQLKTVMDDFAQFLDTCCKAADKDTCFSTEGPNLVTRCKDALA

B1: OmCI (protein)
chain: MDSESDCTGSEPVDAFQAFSEGKEAYVLVRSTDPKARDCLKGEPAGEKQDNTLPVMMTFKNGTDWASTDWTFTLDGAKVTATLGNLTQNREVVYDSQSHHCHVDKVEKEVPDYEMWMLDAGGLEVEVECCRQKLEELASGRNQMYPHLKDCGGGGSENLYFQGSHHHHHH
In the test with human complement C5 [1], B1 had an IC50 of 1.5 nM.

B2: Z06175a-GS-ABD094-GS(G4S)2-Z06175a (designed binder)
chain 1: not shown
chain 2: LAEAKEAANAELDSYGVSDFYKRLIDKAKTVEGVEALKDAILAALP
chain 3: not shown
On to B2, for which the Kd with human serum albumin [2] was > 1 nM; in the test with human complement C5 [3], 0.662 nM; with human complement C5 [4], 0.586 nM.

B3: Z05477a-GS-ABD094 (designed binder)
chain 1: not shown
chain 2: LAEAKEAANAELDSYGVSDFYKRLIDKAKTVEGVEALKDAILAALP
On to B3, for which, in the test with human complement C5 [1], the IC50 was ~30 nM.

B4: ABD094-Z06175a (N-terminal ABD) (designed binder)
chain 1: LAEAKEAANAELDSYGVSDFYKRLIDKAKTVEGVEALKDAILAALP
chain 2: not shown
B4 displayed an IC50 with human complement C5 [1] of 17 nM.

B5: Z06175a-GS-ABD094 (designed binder)
chain 1: not shown
chain 2: LAEAKEAANAELDSYGVSDFYKRLIDKAKTVEGVEALKDAILAALP
With B5, the binding result with bovine serum albumin was “no binding”. Moreover, the Kd with rat serum albumin was < 0.1 nM; with mouse serum albumin, ~4 nM; in the test with human complement C5 [5], 1.18 nM; with human serum albumin [6] it was < 1 nM; with human complement C5 [3], 1.43 nM; with human complement C5 [4] it was 1.43 nM.

B6: Z(756)-GS-ABD094 (designed binder)
chain 1: not shown
chain 2: LAEAKEAANAELDSYGVSDFYKRLIDKAKTVEGVEALKDAILAALP
B6: binding with human complement C5 [5] was put at a Kd of 2.01 nM.

B7: Z(749)-GS-ABD094 (designed binder)
chain 1: not shown
chain 2: LAEAKEAANAELDSYGVSDFYKRLIDKAKTVEGVEALKDAILAALP
Molecule B7 showed a Kd with human complement C5 [5] of 1.83 nM.

B8: Z(751)-GS-ABD094 (designed binder)
chain 1: not shown
chain 2: LAEAKEAANAELDSYGVSDFYKRLIDKAKTVEGVEALKDAILAALP
In the test with human complement C5 [5], B8 came in with a Kd of 1.87 nM.

B9: Z(755)-GS-ABD094 (designed binder)
chain 1: not shown
chain 2: LAEAKEAANAELDSYGVSDFYKRLIDKAKTVEGVEALKDAILAALP
B9: in the test with human complement C5 [5], the Kd is 3.05 nM.

B10: Z(748)-GS-ABD094 (Z06009a) (designed binder)
chain 1: not shown
chain 2: LAEAKEAANAELDSYGVSDFYKRLIDKAKTVEGVEALKDAILAALP
Take B10: binding in the test with human complement C5 [5] was characterised by a dissociation constant (Kd) of 1.31 nM. For the same molecule, the binding result in the test with human complement C4 and in the test with human complement C3 was “no binding” throughout.

B11: Z(757)-GS-ABD094 (designed binder)
chain 1: not shown
chain 2: LAEAKEAANAELDSYGVSDFYKRLIDKAKTVEGVEALKDAILAALP
Turning to B11, in the test with human complement C5 [5], the Kd amounted to 2.34 nM.

B12: Z06175a-Z06175a-GS-ABD094 (designed binder)
chain 1: not shown
chain 2: not shown
chain 3: LAEAKEAANAELDSYGVSDFYKRLIDKAKTVEGVEALKDAILAALP
Regarding B12, the Kd was 0.63 nM in the test with human complement C5 [3] and 0.776 nM in the test with human complement C5 [4].

B13: Z(750)-GS-ABD094 (designed binder)
chain 1: not shown
chain 2: LAEAKEAANAELDSYGVSDFYKRLIDKAKTVEGVEALKDAILAALP
As to B13, the Kd with human complement C5 [5] was 1.75 nM.

B14: Z(752)-GS-ABD094 (designed binder)
chain 1: not shown
chain 2: LAEAKEAANAELDSYGVSDFYKRLIDKAKTVEGVEALKDAILAALP
With B14, in the test with human complement C5 [5], binding was put at a Kd of 2.58 nM.

B15: Z(754)-GS-ABD094 (designed binder)
chain 1: not shown
chain 2: LAEAKEAANAELDSYGVSDFYKRLIDKAKTVEGVEALKDAILAALP
The molecule B15 had a Kd with human complement C5 [5] of 2.28 nM.

B16: SULFO-TAG Z(748)-GS-ABD094 (designed binder)
chain 1: not shown
chain 2: LAEAKEAANAELDSYGVSDFYKRLIDKAKTVEGVEALKDAILAALP
Consider B16, for which the Kd with human complement C5 [7] was 0.9 nM.

B17: Z06175a-GS(G4S)2-ABD094 (designed binder)
chain 1: not shown
chain 2: LAEAKEAANAELDSYGVSDFYKRLIDKAKTVEGVEALKDAILAALP
B17: in the test with human complement C5 [3], the Kd was 3.75 nM. In other words, the single-digit nanomolar range.

B18: Z06175a-Z06175a-GS(G4S)2-ABD094 (designed binder)
chain 1: not shown
chain 2: not shown
chain 3: LAEAKEAANAELDSYGVSDFYKRLIDKAKTVEGVEALKDAILAALP
Consider B18, for which the results for the Kd with human complement C5 [3] and with human complement C5 [4] were 1.38 nM and 1.13 nM, respectively.

Usually IC50 stands for the concentration that inhibits the measured activity by half. Read a low IC50 as higher potency. As usually defined, the Kd is a measure of binding affinity in units of concentration. A high value points to a looser complex.
